Laboratory results: paper PMC11694511

Assays:
[1] = biological target: LolA from Porphyromonas gingivalis (P. gingivalis); test: ITC
[2] = biological target: LolA from Vibrio cholerae (V. cholerae) (UniProt A5F2G9); test: ITC

Substance | Kd [1] | Kd [2]
colistin (peptide) | 33 µM | 91 µM
polymyxin B (peptide) |  | 56 µM
